In the DeepSol protein solubility set:

Experiment: soluble on expression in E. coli; label from the status in PepcDB or PDB records

| Sequence | soluble on expression in E. coli |
| --- | --- |
| MRSKFFSFFTRASRPMKAIPPKIWFETQLKGSGLDKKFQIDELIETQSSVRVFANKKYLPDTETINEALTKVTAVNVSGDKSGYFQNGLPFPNEAGYFEKIPVGHPELLSPIERLTGSKKIVSSHSLVTASGGYPLTNPLLPYRKPIRVSIFSLAGPSFENNYLHYRLFLLDSVQKIIDSPLFSHLHDGLPIQFDEAKKELGEYDTNKLMARIRLGFPYLARFSSGGFYPSFSKSNAIIFLSEAYFRYQLEDVSLLLASVNQTGKETGKAALLKATAVGMGFFAKIDCGYDIQHIIFPYYLRAYKKLLSEHKFPWIAKIEFPIFNEIQQEQFDSIFEDYDGPTKVYRSTRDVLEFREEEIEKYLPAAINPSDAFALTGNEWGYGSVESMIGNNSSIRFDQVHHMNPLILDPSHHVEAQINKDHGVELTVNPRPQSSSSIKL | not soluble |
| MDWNHYRFRSRWPLPAPAPDVYRALERIEDYPRWWPQVREVTRLDDTSGLLRFRSLLPYDLTATVREQRRDPTEGVLEVAMSGDMEGWARWTVAPRGSASLVRYDQEVVVRKPLLRRLAVPGRPLFRANHRLMMRAGRRGLAAHLAGGRQAVLEHHHHHH | soluble |
| GPLGSNMDAAEVEFLAEKELVTIIPNFSLDKIYLIGGDLGPFNPGLPVEVPLWLAINLKQRQKCRLLPPEWMDVEKLEKMRDHERKEETFTPMPSPYYMELTKLLLNHASDNIPKADEIRTLVKDMWDTRIAKLRVSADSFVRQQEAHAKLDNLTLMEINTSGTFLTQALNHMYKLRTNLQPLESTQSQDF | soluble |
| MQFNAVLVKLLDELEVRLRAAQLWQATPPSSQALVSQEPFAVDTLLPHEWLQWIFLPKMQQAIAQNAVPRGFALEPYFSEVWQGEARYQAVLAVIQQIDKVCQ | not soluble |
| MSLISPIIRLSHVTFQTSSAARVIKEFVTKYQFHPFAARGLDGGSPCQVALKNGGVVFMVNENTPKTHENSVLLYDFPLQIPFPDTACNVTFEVEDVSGLYHHLVDEGCQLLLPPTELHDDFGSVTYCIVKSVVGNVSHTLIDRTHYRSSFLPGFEYLKNSTHNLSSGNMTEGHHHHHH | not soluble |
| MKWLLLITLSLYSFIVQSAPCGLTNVGEQRGTYILKPLSMKGNLTAEKIENTGNIIECADLQETTNAIKVHFLTQNALRFKVGSRHYIINFPFESDGKKNSASREVIL | soluble |
| FKDFRLGINLNGVYAKNKILFWDEAPGTPEWQKSTGKPIDSGLYYEAIGIFKDQAAVDAYPHWAGARPGDIIFKDVNGDNVIDGNDRVRNDKSRTPRFTGGLNVDLGYKDFDLSFLLQGAMGGVFYQTTESGDFANFLKSFYDNRWTEENPDADFPRTYNRSNEYFINQQNTFWLHKTDYIRLKNIELGYTVPSIWSKKIGVEHLRVYINAYNLLTISPDMKDYDPENTSGSGYNYPLNKVINFGVNLTF | not soluble |
| AMMIGIIGAMEEEVTILKNKLTQLSEISVAHVKFYTGILKDREVVITQSGIGKVNAAISTTLLINKFKPDVIINTGSAGALDESLNVGDVLISDDVKYHDADATAFGYEYGQIPQMPVAFQSSKPLIEKVSQVVQQQQLTAKVGLIVSGDSFIGSVEQRQKIKKAFPNAMAVEMEATAIAQTCYQFNVPFVVVRAVSDLANGEAEMSFEAFLEKAAVSSSQTVEALVSQL | soluble |
| MGSDKIHHHHHHMSTPVLNLDPDTLLMSSKDARAAAAPYAAEYQGRGPFNYGGYDNFLNPEILERVREELKQLPEAANSYDRPQERLKTSYVPERLPMYTRQLFYALNSRPMLAFIEELTGIKGLIPDPYFAGGGVHVVANGGHLDIHADFNHHAGLNLERRVNLLIYLNKDWREEYGGSFEVWDENMAGKLASYVPLFNRMCMFSTSSESWHGNPEPVNHPDGEPRMSIALYYYTATWDSTRKSHTTLFKPRPGTKDQRDRQVARRELLQDLLPPVLHRKLAWRLEKLGF | not soluble |
| MSLNINDALTSILASKKYRALCPDTVRRILTEEWGRHKSPKQTVEAARTRLHGICGAYVTPESLKAAAAALSAGDVKKALSLHASTKERLAELDTLYDFIFSAETPRRVLDIACGLNPLALYERGIASVWGCDIHQGLGDVITPFAREKDWDFTFALQDVLCAPPAEAGDLALIFKLLPLLEREQAGSAMALLQSLNTPRMAVSFPTRSLGGRGKGMEANYAAWFEGGLPAEFEIEDKKTIGTELIYLIKKNGEGHHHHHH | soluble |
| MEIKEFSACNLESLRKLYLDSRRDSFPWLKADSFRIEDFDRDSQGERIWLSEVLGNVVGFISIWEPDNFIHHLYVATEYQGQGVGSMLLNGAKMKYGNLSLKCMVQNQKALNFYSSQGFEIVSQVDDELGGYYYMSFSAQT | not soluble |
| SDIEQKQAEIIDQLVKRASTCKSEALGPLIIEATSHPSLFAFSEILALPNVAQLEGTTDSVYLDLLRLFAHGTWGDYKCNATRLPHLSPDQILKLKQLTVLTLAESNKVLPYDTLMVELDVSNVRELEDFLINECMYAGIVRGKLDQLKRCFEVPFAAGRDLRPGQLGNMLHTLSNWLNTSENLLISIQDKIKWADNMSEMDKKHRKEAEEGVEEVKKSLSMKGDVDIRGNKEMFGEPSGVMDYEEDGIRPKRRRHPVTR | soluble |
| MSLNILIIAFEGIEGSGKTSHLEATKKYLEKEGYGVVTFGLQMSKLIGDRIAQVKRNIIFERRTLFLAYVTDLADQIENYVKPSIDSGFIALADGYTLTLTSWGLTRGLEKEWIDDVLSMLPKPSISLPLISTPDEIVRRIIKKRGYLDPLETGIDICIKEDTFEAYIDYINRFQEALMSISSRENIIYTDKEFDEVQKEIVRRIDNITEGHHHHHH | soluble |
| MTCEGRRTMTQPISLGHRMSLIDLYDLRMPQRTGTYVLHEENLAIIETGPSPSVPHLLAGLKALHIDPADIRYIIVTHIHLDHAGGVGVLLEHCPNATVIVHPKGKRHLADPSRLIAGAKAVYGEQFDALFDPIVPVPEERLLVKEDGETLVLSAERTLTFYDTPGHANHHFSIYDSYSGGVFTGDTIGVFYPQLQEAGLAFCLPSTSPNQFNPEAMKQSAERLEKLNPTRIYFGHFGALDQPEEAFRQLRFWLPKFVAAGKEVIARHPEAPAAEQAKAVTKLLHNDITAFLNECSIPASSPVYKVIELDLQVCAMGIIDYWRKQRLEHHHHHH | soluble |
| MGSDKIHHHHHHMKRVVITGMGIVSPFGVGKERNLEGLRETKVTIDRISSFDASNLPVQIAAEVRDFKPEEYINPKLVRRTDRFVHFALVSAKEAVEDAGINFEPYADRTATIIGSGMGGFLTLDSENNKFLSQGPSRVSPFLIPMILIDMASGVVAMEYGLKGPNFSSVSACASSLHAVALGALLIRHGYADVAVVGGTEATIAPLPITGFANMRALSRRNDDPKRASRPFDKDRDGFVMGEGGAVLILEAEEVAKSRGAKILAEIKGVGMTDDAYHFSAPDPEGRGAAEAMKLALKESSLAVEDIDYVSCHATSTPAGDEAELKAIKKVLGEHVKNVAINSSKALIGHLLGAAGASELVLAILQMQNSFVHGMPNLDNPIDEAKGTGLVGKEPVQMEIKNFIKNSFGFGGHNVSIVVGRYES | not soluble |
| MEKIKNTCKIWEYIYTISRDRLYQKIPKEEFLRLSTSDKEYLEAIKNLNNPKISELARDMGYTKTAVTTMVQKLEKNGYLKKIKSKEDKREINVELTDKGRYIFELKEEVYEYTIKRIKEVLTPQELGAFKAILEKIAKEFDQELGKIYEKNENIDKSDGPPII | not soluble |
| MAFRSKFAVLDESWTYVRVRRGPRRQNLWIWNALIDGVPFFVTGDRDYNTFRLLWLSLPKCEVHYTDDYPIYQVLYHHVVGKKYTHTVESYNSFCRSHLVRLARDTKAVNRSRAMIDYSLDLLNVMYPQLEHHHHHH | not soluble |
| GSHMKNPYSNQIEREELILKYLPLVKAIATNIKKHLPEDVDIRDLISYGVIGLIKAVDNLSTENPKRAEAYIKLRIKGAIYDYLRSLDFGSRQVREKERRIKEVVEKLKEKLGREPTDEEVAKELGISTEELFKTLDKINFSYILSLEEVFRDFARDYSELIPSSTNVEEEVIKRELTEKVKEAVSKLPEREKLVIQLIFYEELPAKEVAKILETSVSRVSQLKAKALERLREMLSNPL | soluble |
| MTIAVSPQALPALVLNADYRPLSYYPLSLWSWQDAIKAVFLDRVNIIAEYDHAVSSPSFSMRLPSVVSLKTYVQPIRNPAFTRFNVFLRDKFECQYCGTRDELTFDHVIPRAHGGETTWHNVVAACSPCNLRKGSKLPKQAGMFPAQKPFQPTVQDLHNNGRLFPPNYLHESWMDYLYWDTELQPLEHHHHHH | not soluble |
| MSDPRPARAVVVGIDGSRAATHAALWAVDEAVNRDIPLRLVYVIDPSQLSAAGEGGGQSAARAALHDASRKVEATGQPVKIETEVLCGRPLTKLMQESRSAAMLCVGSVGLDHVRGRRGSVAATLAGSALCPVAVIHPSPAEPATTSQVSAVVAEVDNGVVLRHAFEEARLRGVPLRAVAVHAAETPDDVEQGSRLAHVHLSRRLAHWTRLYPEVRVDRAIAGGSACRHLAANAKPGQLFVADSHSAHELCGAYQPGCAVLTVRSANL | not soluble |
| MKKVEILKTSRPSSAGGAARPSTASPTHGAPKIAIKTRPVADDVAPTAATVIEPSQKAMKESVRFLTDFGEISDAISDLLTSSPNFNVISAIGPQGAGKSTLLSMLAGNNSRQMYREYVFRPVSREANEQSRHQTIQIDIYIVNHQIFLDCQPMYSFSIMEGLPKVRGGRFDDSTAMSDTLRLTAFLLYVSHTVLVVSETHYDKVIIDTLRVAEQIRPYLAIFRPKLAIDRKTNLVFIKTKASSIDLAPTVIREREELLRLSFQDSRWLKVSQEPFKTLIVLEEIRVRREHLFEEGDEPDEAASLNEFDEQIAELREELQKNREDFTVETAAMDEKKWLDMCREVIRDKTLHKTLKEYQRAMTDGVRTHFDNGFHAERDANKFFS | not soluble |
| MSKYNAKKVEYKGIVFDSKVECEYYQYLESNMNGTNYDHIEIQPKFELLPKLDKQRKIEYIADFALYLDDKLIEVIDIKGMPTEVAKLKAKIFRHKYRNIKLNWICKAPKYTGKTWITYEELIKARRERKREMK | not soluble |
| AEIYNKDGNKLDLYGKIDGLHYFSDDKDVDGDQTYMRLGVKGETQINDQLTGYGQWEYNVQANNTESSSDQAWTRLAFAGLKFGDAGSFDYGRNYGVVYDVTSWTDVLPEFGGDTYGSDNFLQSRANGVATYRNSDFFGLVDGLNFALQYQGKNGSVSGEGATNNGRGALKQNGDGFGTSVTYDIFDGISAGFAYANSKRTDDQNQLLLGEGDHAETYTGGLKYDANNIYLATQYTQTYNATRAGSLGFANKAQNFEVAAQYQFDFGLRPSVAYLQSKGKDLNGYGDQDILKYVDVGATYYFNKNMSTYVDYKINLLDDNSFTRSAGISTDDVVALGLVYQF | soluble |
| MRISSLLFLTFLAGIVQAQDFLAMFKPFLGGGGGGGNPFANPQAIGGLFQQFAGGNGGGFGQLLAGAMAPKPAPAAAGPRSAPAPTNEDYNTDIDVPAPKAKARAAPTPRRAQGDDDDNIDMSLTRLG | not soluble |
| MGSSHHHHHHMDRYEIKGVDVASYQGDIDWRELEKQNMKFAFIKATEGSAFVDKYFSKNWTNANKTSMRVGAYHFFSFDSKGETQAEQFIRNVPKYKQALPPVIDVEFYANKKDNPPKREDVTKELSVMIEMLEKHYGKKVILYATQEAYDLYIKDAYPQCDIWIRSVLTKPSLSDERKWTFWQYTNRGKLSGYNGKEKYIDLNVFYGNEEEFENYGMKD | soluble |
